In the DeepSol protein solubility set:

Test: soluble on expression in E. coli; label from the status in PepcDB or PDB records
In the case of “MGSDKIHHHHHHMTSSPTSTQESSTSWYLLLQQLIDGESLSRSQAAELMQGWLSEAVPPELSGAILTALNFKGVSADELTGMAEVLQSQSKMGTGENYSQLPITNSPFSIIDTCGTGGDGSSTFNISTAVAFVAAAYGVPVAKHGNRSASSLTGSADVLEALGVNLGASPEKVQAALQEVGITFLFAPGWHPALKAVATLRRTLRIRTVFNLLGPLVNPLRPTGQVVGLFTPKLLTTVAQALDNLGKQKAIVLHGRERLDEAGLGDLTDLAVLSDGELQLTTINPQEVGVTPAPIGALRGGDVQENAEILKAVLQGKGTQAQQDAVALNAALALQVAGAVPLLDHAQGVSVAKEILQTGTAWAKLAQLVYFLGN”, the “soluble on expression in E. coli” value is reported as “soluble”. In the case of “MGSDKIHHHHHHMTSYVLTVSCPSKRGIVAALSGYLAEMGCNIVDSSQFDDLDTDRFFMRVSFISEQGASREKIEAGLAPIVDNFQMEIGLYDSTERVKVLLMVSRFGHCLNDLLYRWKIGALPIDIVGVVSNHFDYQKVVVNHDIPFHHIKVTKDNKPQAEAQLMELVQQTGTELIVLARYMQVLSDAMCQKMSGKIINIHHSFLPSFKGANPYKQAFERGVKLIGATAHYVTADLDEGPIIEQDVARVTHAQNAEDYVSIGRDVESQVLARAIHAHIHHRTFINGNKSVVFPASPGSYASERMG”, the “soluble on expression in E. coli” value is reported as “not soluble”. For “MGSDKIHHHHHHMTTLSDVAKEANVSKMTVSRVINHPEQVTPELRAMVEKAMEKLNYHPNSIAQALVNNRSNVVKFVTLEDIDTTEPYYTNLLFGFARGLNAKQYALQLVVDPTRIEKGRADGYLITGARNEDYDMFDKLDKPFVLFGENHRGYDFVDTDNQTAEKMATQYALDRLYKHIIFIGIDIKEPFEYSREAGYINTLQQHRLIPQIYRVSNHSHAAQKVIHEHFKEFKKDTCFICASDRIAVGVVRQLQDERARIPEDFGVIGFDGVFLDQVSNPKLTTIKQPIFEMGKMLAKMLLQKIDQSGSPQGELMVKPQLIRRETTR”, the “soluble on expression in E. coli” value was “not soluble”. For “MGSDKIHHHHHHMTVSQVSTGTGLGTRHVAFDWGGVFTVGTFDGRSTQNVAERSGVPVEKVRESYFRHIRQLEVGAWTLPQFWETVQQETGMTLPYADFEALYLGSIHDNAPMYTTLAALPRSVRVGLLSNNYPVVSEHLGRDPRFARFDALVFSNEIGHKKPAPEAFAALEQKMGLPAAQVAFVDDVQENIDAAGAFGFHGILYHHDAHERFEQELKEWLRG”, the “soluble on expression in E. coli” value was “not soluble”. For “MGSDKIHHHHHHMTWHEVNDVIVITLPEIFDMNANLGYLTREKNECMYEIENNIITKVIAIGEIRSLVQVSVINNKQMIVQFLNDSRPVEQWKREEIVKYIHEWFDLDNDLTPFYEMAKADPLLKMPARKFYGLRVIGIPDLFEALCWGVLGQQINLAFAYSLKKQFVEAFGDSIEWNGKKYWVFPPYERIARLTPTDLADIKMTVKKSEYIIGIARLMASGELSREKLMKMNFKDAEKNLIKIRGIGPWTANYVLMRCLRFPTAFPIDDVGLIHSIKILRNMNRKPTKDEILEISVPWKEWQSYATFYLWRVLY”, the “soluble on expression in E. coli” value was “not soluble”. For “MGSDKIHHHHHHMTWKSVNFDWNHIRAFLVTAEEGTLSAAAKALGLTQPTLSRQVSALETELCITLFERVGQRLVLTSSGLKLLEHARGMGDAALEFSLAVTGQSQKIEGSVIVSAGELTAAYMLPKIISKLRREEPGIDIEVVVTNEASDLKRREADIAIRSFHPTQNDLIAKKIGEEVIWLYGTPEYLDQLPTIPSFSELKDIQIIGFDRSNSLTDVLNKQGWQLSKKNFSLITSFQLLQLALCKEGQGVIFYPEQMGDQEPNLVRAYEHLGPVMKLPVWLVCHQELRTSLRVRRVFDFIATELSDNFY”, the “soluble on expression in E. coli” value was “not soluble”. For “MGSDKIHHHHHHMTYIALGMAAIGRPHYINIKTIDSPKDLTKAELHAHATAVLDAAYAMGIRHIDTAPGYGIAEEILIDWLRRSGHEDMTVSTKWGYTYTANFEKNPLQHEVKEHSLHVLQQQWLYSRQLLPPLNMYQIHSATSDSGVLNNQGVLDKLFELKEQFGIEIGLTTSGLTQNATIQQALKITNQGKPLFTIFQVTYNVFEQSIADSVALLKNQGARIIIKEGLANGRIFTCADFPQYAPAYALLERLAGKYHVGVDAVALRFCIDALRPLYVLSGAATIVQLKENLLAETFTLQSEELEELKSIHVASEAYWNERKQLKWN”, the “soluble on expression in E. coli” value was “not soluble”. In the case of “MGSDKIHHHHHHMTYKPKYDNLMENPKIRRWFENLKAKSILTATVYRRTLGYYCELEKTTPEQLLTDMEKLEFRDNFLDFVRRLEKEGKAGSYIVRYKKVLRSWAKFNGIDIKLDVNIANENESPTLDNERVPSKEELSRLLRKATSRGRVSIPIMAFSGFRPETLGNYEGTDGLRLGDIKELKISDEIEFTKIPATIMVKTRLSKARNQYFSFIGEEGITYIKEYLEERKKNGEELTYESPLLQFDVRGTKKNDFMRTMLVTRDIREAITTAGLKMRPYVLRAYFSTALDIAESKGLISHPWRQFIMGHKGDIEARYSTNKRLPPDMIEEMRESYRKCLKFLETRISDVSEDNAKLFLQQQLLSAVGYKQEEIDKLDLSSVSNEDFQQLLRDKVAGAMSDNGAKQKVIPVNEIEQYISDGYDFEAVLPNGKAVMRLRF”, the “soluble on expression in E. coli” value is reported as “not soluble”. In the case of “MGSDKIHHHHHHMVARRRLDAELVRRKIARSREHAVEMIRGRRVFVAGMLALKPATVVEPEVSIRVEEDASEDWASRGAHKLLGALESFEPLGLKVKGRRVLDAGASTGGFTDVLLRREASEVVAVDVGYGQLIWRLQNDDRVRVVDRTNIRYMTLEDTGGECDMMVGDLSFISLKLTLPAIAKVLSDGADLLPMVKPQFEVGKDRLGSGGVVRSPELRAEVTADVAKFAATLGLSLKHVVASPLPGPSGNVEYFLWLVKDGGASMPDDQQLSAMIDTAVKEGPQ”, the “soluble on expression in E. coli” value is reported as “not soluble”. In the case of “MGSDKIHHHHHHMVDDVFGNAIASATFRTHSDSLVVDSLATVDLTASAWPVFDIAASAINYPFLYADRDGTDLGALAVQQFDDVDQRLRTWMRGFVAGEPTDTLSLLKDISLGIASSISYQSREEEGTQAPLTTLDRGWGSCRDFAVLFAEAVRSLGFGARIVSGYLFNPNRALTGSTDSGSTHAWAEVFVPGAGWITLDPTNRSMGGANLIPVAVTRDIAHAVPVSGSFIGGSNGLPVNERGRRSQSNRPGLSGAAVERWIDVAQFSRCRAAPLVLNRPEPLTR”, the “soluble on expression in E. coli” value is reported as “not soluble”. In the case of “MGSDKIHHHHHHMVEVLERLGCETVLPEKQICCGQPTYNSGYSKDSMKTFKNEIDALLSIDADYIVGPSGSCVFMIKEYKDIFKDDPEYGPKAAEIDSKIYEFTQFIYRVLKVVDCGAELDAKVTVHRSCHMTRLIGERTAPFVLLDHVKDIERVPLKNVQLCCGFGGTFSAKRPELSVEMVDEKVKNIVDTDAEILIGTEESCLMNIVGRMNRLGYKIKAMHIAEVLNHNVDINRIKYIKDTDHVVVPANGEGVF”, the “soluble on expression in E. coli” value is reported as “not soluble”. With “MGSDKIHHHHHHMVFPISLEGYHLEEVVIIGGGVAGLSCLNALLDQGISALLIEGSTIGTPKMCGEFLAPIAAQQLQLWDVDPLIPIPHAAFYAGIRQLDIHFTKPSAAISRSDVELKLAARARRLGGRIRENTYLEYTTPATERTPFYFKLSTGEIIEAKSAFFATGKLSNNKDNKKIALPYFGFKLHFSHTENDHSLKMFSLDKAYLGIVPITETISNCACLAKREAVDAATSPEEHFRHLTQSHPVLKKIFTPLDLSAIDILSGRAPAFTQKKPPNWPNSYWIGDTLASLYPAIGSGFAHSVDSAIQAVQSYLKQQPKLYRINYSKSIKTKVLLGNVFNAALLQPKVGQLALPLLKRSPKLVNLVLKKLDYV” the “soluble on expression in E. coli” value was “not soluble”. For “MGSDKIHHHHHHMVGIILASHGEFAEGILQSGAMIFGEQENVKAVTLMPSEGPDDVKAKMQEAIASFDNQDEVLFLVDLWGGTPFNQANSLLEDHKDKWAIVAGMNLPMVIEAYASRFSMESAQEIATHILETAKDGVKVKPEELQPAEAPKAAATEDAQPKGSLPPGTVVGDGKIKFVLARIDSRLLHGQVATAWTKATQPNRIIVVSDAVAKDDLRKKLIEQAAPPGVKANVIPISKMIEVAKDPRFGNTKALLLFENPEDVLKVVEGGVEIPEVNVGSMAHSVGKVVVSKVLSMGQEDVDTFDELKAKGIKFDVRKVPNDSKANMDEILKKAKNELANA”, the “soluble on expression in E. coli” value was “not soluble”. With “MGSDKIHHHHHHMVKVEIDEGSGFCFGVVTAIHKAEEELAKGVTLYCLGDIVHNSREVERLKEMGLITINHEEFKQLHNAKVLLRAHGEPPETYIIAKENNIEIIDATCPVVLRLQKRIKQEYMQEDLDEKQIVIYGKNGHAEVLGLVGQTTGKAIVIEKLDEARRLDFSKSIRLYSQTTKSLDEFWEIVEYIKEHISPDVTFEYYDTICRQVANRMPNLRKFAASHDLIFFVSGKKSSNGKMLFEECKKVNPNSHLIDSADEIDDSLLPGVNSIGVCGATSTPKWLMEEISEAIKAQIKRQ” the “soluble on expression in E. coli” value was “not soluble”. In the case of “MGSDKIHHHHHHMVLPSMNKSVEAISNNHLQQPNKFPLINGLADVRDYYVANCLLFKLNKGSLRIENEFGEFIERSAPCLFLLEKDQTITLSMSEIEGHIDFSSLEVSYDLMQKFYKVFYSTRNYNDRELSLKTKPKYFFHADLLPGMSDTFDSILHGVACPRVCSNVSIDDHDYSYFSLMYLISAFVRKPGGFDFLERAIKITTKEKVYNIIISDLTRKWSQAEVAGKLFMSVSSLKRKLAAEEVSFSKIYLDARMNQAIKLLRMGAGNISQVATMCGYDTPSYFIAIFKRHFKITPLSFMRTMNH”, the “soluble on expression in E. coli” value is reported as “not soluble”. In the case of “MGSDKIHHHHHHMVNEELLWVLWQHLLFSVESLHTTTGEPIIIKHTGTLNVHAGPDFSLAKLCIDGIEWAGDVEIHTKASDWYKHKHQHNPAYESVILHVVYEADIDITRADGSCIPVLELKDRIHTMHLETYGYLMEEKKTVPCAHAIHEIPAIVMEQMKQRVLIERLERKTDGLFQLLTDQPNWKMIAGRLIFKSFGTGLNDYLFERMAQQMDFNKLDRLSYAPKSIEALFFGCSGMLEKDWADDFPAALKKEYTYLQRTQTVTCTIDSSEWKFLRTRPVNFPTIRLAQLAALFSNTDWYASFSSITSVKYAEDFLNVSLSDYWLNHYRFDVLSKPAPKHIGKTFANTFLLNAYIPFLVLHARYYKNETTWEQVFEMLDTIQAEDNAITRVWKELGIRMDTGFDSQSGLELYKMYCTHKKCLSCSIGFSILRNASVSAVVK”, the “soluble on expression in E. coli” value is reported as “not soluble”. With “MGSDKIHHHHHHMVNGRFFTTAGESPAFRGRAWGRVVTQYFGGLDACCDGDDAFDAQLSQYEIGPMRVFTIAAPAHRIVRPVAALHDHGSDFFKLILQLSGVSEIEQRGKTFRLHSGDWSLYDPRVPYSIANLTHVEQLAIQIPRKQLGGFAVPDLHTSDVREFELKGLFSLLSSFLVSLSEQLPSLPGTTGTALSETILGLIVSTLTAQRDAQGEHVALPAVLRMRVKQYIHGHLADADLSIDRIARELRCSKRYLHRIFEEEGVTIDRYIWSSRLERCKDALDNARAAKPAISEIAFSWGFSSSAHFCRSFKQRYGMTPREFVRRRAWS” the “soluble on expression in E. coli” value was “not soluble”. In the case of “MGSDKIHHHHHHMVRHKRDIQRDTVPEWEDLRQLAHEIKRYNVTHLDELLLRFEENARRNGVIVHWAKDAKEHNEILYGILRDHGVKKFVKSKSMLTEECHLNEYLIEKGINVIETDLGERILQLMEEPPSHIVMPAIHIKREAVSDLFHDKLGTEKGNYDPTYLTRAARKSLREDFISADAAMTGGNFAVASTGEVVVCTNEGNADMGMACQKLNICSFGLEKLVPDLDAVGVFTRLLARSGTGQPSTTYTAHYRKPHEGGELHYIIVDNGRTDIIENEEHVKTLNCIRCGACMNTCPVYRRSGGYSYTYFIPGPIGINLGMLKDPRRYSDNVSACSLCLSCSNVCPVKIDLGEQIYRWRQDLDHLGRASQEKKLMSAGMKYLMDSPWRFNTALKMAPMANSLPRFLLYNGLNAWGKGRELPRFASTSFNNWWKKNIKK”, the “soluble on expression in E. coli” value is reported as “not soluble”.
